Test results from US20160024213A1 (VIB VZW, published 2016).

T1: Recombinant mouse MMR (R&D Systems) (mouse, UniProt Q61830 20-1388)
T1 construct: Bought from R&D Systems; Immobilised on CM5 chip (SPR) or coated on plates (ELISA); also called mMMR; recombinant mMMR
T1 sequence: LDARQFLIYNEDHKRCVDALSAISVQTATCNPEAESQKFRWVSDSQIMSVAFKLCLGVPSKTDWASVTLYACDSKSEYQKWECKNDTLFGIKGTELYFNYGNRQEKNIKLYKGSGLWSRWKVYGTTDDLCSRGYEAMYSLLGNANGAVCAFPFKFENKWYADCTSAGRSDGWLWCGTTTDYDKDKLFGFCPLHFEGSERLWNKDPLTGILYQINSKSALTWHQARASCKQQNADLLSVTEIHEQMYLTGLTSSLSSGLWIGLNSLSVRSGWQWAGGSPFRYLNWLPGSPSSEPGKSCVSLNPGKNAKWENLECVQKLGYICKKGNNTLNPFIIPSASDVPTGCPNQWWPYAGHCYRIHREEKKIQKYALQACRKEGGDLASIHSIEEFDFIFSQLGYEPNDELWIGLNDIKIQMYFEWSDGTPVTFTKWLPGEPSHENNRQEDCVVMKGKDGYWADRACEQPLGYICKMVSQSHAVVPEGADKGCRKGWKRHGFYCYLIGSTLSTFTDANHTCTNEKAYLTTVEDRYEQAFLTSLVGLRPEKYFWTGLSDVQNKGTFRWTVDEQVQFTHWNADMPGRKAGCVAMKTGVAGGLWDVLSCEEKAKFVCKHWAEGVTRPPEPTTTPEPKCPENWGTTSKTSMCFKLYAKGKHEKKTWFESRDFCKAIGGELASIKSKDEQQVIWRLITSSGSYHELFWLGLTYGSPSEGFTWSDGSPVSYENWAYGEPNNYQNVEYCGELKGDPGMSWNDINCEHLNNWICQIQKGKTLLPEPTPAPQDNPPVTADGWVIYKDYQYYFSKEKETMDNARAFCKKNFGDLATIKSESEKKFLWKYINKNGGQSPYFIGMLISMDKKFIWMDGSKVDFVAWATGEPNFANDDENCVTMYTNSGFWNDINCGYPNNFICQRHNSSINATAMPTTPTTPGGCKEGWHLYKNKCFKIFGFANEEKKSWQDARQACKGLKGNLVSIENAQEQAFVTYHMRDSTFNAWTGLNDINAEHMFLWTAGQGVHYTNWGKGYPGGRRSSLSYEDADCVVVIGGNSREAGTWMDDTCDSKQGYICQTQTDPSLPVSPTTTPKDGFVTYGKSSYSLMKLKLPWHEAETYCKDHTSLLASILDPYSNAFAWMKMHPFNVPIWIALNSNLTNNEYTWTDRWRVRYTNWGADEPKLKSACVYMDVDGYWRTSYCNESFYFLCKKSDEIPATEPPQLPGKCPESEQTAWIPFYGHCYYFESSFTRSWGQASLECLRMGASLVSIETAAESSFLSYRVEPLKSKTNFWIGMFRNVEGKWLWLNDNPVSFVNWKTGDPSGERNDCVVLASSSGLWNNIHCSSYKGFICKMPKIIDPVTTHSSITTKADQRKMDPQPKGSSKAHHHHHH

T2: Recombinant human MMR (R&D Systems) (human, UniProt P22897 19-1383)
T2 construct: Bought from R&D Systems; also called hMMR; recombinant hMMR
T2 sequence: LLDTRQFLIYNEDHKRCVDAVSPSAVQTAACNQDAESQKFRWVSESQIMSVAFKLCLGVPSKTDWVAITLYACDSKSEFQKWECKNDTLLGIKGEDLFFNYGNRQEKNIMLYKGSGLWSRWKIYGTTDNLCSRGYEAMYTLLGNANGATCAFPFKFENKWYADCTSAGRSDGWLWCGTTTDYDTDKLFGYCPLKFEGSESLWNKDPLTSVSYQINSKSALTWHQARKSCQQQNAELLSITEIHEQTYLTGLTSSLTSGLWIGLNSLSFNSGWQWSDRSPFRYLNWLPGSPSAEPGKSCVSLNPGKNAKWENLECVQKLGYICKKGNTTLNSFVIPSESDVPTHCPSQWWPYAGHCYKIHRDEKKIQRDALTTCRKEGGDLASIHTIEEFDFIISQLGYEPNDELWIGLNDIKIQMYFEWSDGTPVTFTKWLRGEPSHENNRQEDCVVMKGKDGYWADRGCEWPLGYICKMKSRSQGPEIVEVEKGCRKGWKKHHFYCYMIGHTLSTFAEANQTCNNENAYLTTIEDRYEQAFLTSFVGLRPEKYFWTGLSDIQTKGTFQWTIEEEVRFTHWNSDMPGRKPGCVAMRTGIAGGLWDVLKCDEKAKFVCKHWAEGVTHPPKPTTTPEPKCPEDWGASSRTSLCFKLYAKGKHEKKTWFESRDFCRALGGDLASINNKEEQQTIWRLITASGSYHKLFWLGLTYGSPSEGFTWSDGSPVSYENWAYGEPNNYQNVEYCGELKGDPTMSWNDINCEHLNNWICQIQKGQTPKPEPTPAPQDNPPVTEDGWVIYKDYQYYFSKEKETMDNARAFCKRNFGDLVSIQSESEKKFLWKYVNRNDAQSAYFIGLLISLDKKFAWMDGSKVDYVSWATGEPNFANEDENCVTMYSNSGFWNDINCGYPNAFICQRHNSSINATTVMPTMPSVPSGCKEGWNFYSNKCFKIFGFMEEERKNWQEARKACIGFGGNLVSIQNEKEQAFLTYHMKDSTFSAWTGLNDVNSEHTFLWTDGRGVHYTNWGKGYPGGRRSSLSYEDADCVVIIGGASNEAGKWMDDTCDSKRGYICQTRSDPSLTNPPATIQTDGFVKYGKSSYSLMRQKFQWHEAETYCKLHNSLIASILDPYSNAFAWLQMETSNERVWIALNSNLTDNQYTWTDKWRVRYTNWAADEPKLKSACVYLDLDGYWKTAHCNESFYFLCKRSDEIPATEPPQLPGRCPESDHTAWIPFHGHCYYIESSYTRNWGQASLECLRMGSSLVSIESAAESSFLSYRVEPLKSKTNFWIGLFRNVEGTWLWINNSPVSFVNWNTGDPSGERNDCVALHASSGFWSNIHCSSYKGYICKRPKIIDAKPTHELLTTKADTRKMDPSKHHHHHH


Assays:
[1] = target: T1, Recombinant mouse MMR (R&D Systems); experiment: SPR, immobilised recombinant MMR
Description: (§1) Affinity analysis was performed using a BIAcore T100 (GE Healthcare) with HEPES-buffered saline running buffer (10 mM HEPES with 0.15 M NaCl, 3.4 mM EDTA and 0.005% surfactant P20 at pH 7.4). MRR was immobilized on a CM5 chip in acetate buffer 50 mM (pH 5.0), resulting in 2100 RU MMR coated on the chip. A second channel on the same chip was activated/deactivated in a similar way and served as a negative control. The MMR Nanobodies were used as analytes in 11 different concentrations, ranging from 1 to 2000 nM, at a flow rate of […]. Glycine-HCl 50 mM (pH 2.0) was used for elution. The kinetic and equilibrium parameters (kd, ka and KD) values were calculated from the combined sensogram of all concentrations using BIAcore T100 evaluation software 2.02 (GE Healthcare).
Bivalent Nanobodies were constructed by linking two anti-MMR Nanobody 1 entities using (G₄S)₃ ([…]; SEQ ID NO:151), llama IgG2 hinge ([…]; SEQ ID NO:152) or human IgA hinge ([…] SEQ ID NO:153) linkers. […] As a negative control Nanobody in all experiments, we consistently used α-BCII10 Nb, which is a binder of the β-lactamase BCII enzyme of Bacillus cereus.

[2] = target: T1, Recombinant mouse MMR (R&D Systems); experiment: SPR, BIAcore T100, MMR on CM5 chip, Nanobody as analyte
Description: as §1
Anti-CD206 (anti-MMR) Nanobodies (Nbs), which are the smallest available antigen-binding entities, were created in order to target MMR-positive cells in vivo. Nanobodies were raised against the recombinant extracellular portion of MMR, as described in the Materials and Methods (see also Table 1). The binding characteristics of the monovalent anti-MMR Nanobodies were compared using surface Plasmon resonance (SPR) measurements (Table 2).

[3] = target: T1, Recombinant mouse MMR (R&D Systems); experiment: SPR, BIAcore T100, mouse MMR on CM5 chip
Description: as §1
(§2) The binding characteristics and affinity of selected Nbs towards the recombinant hMMR and recombinant mMMR antigen was examined in further detail using surface plasmon resonance. A combined sensogram was recorded for each Nb (example for NbhmMMRm3.49 in FIG. 7) and the kinetic and equilibrium parameters (kd, ka and KD) values were calculated (Table 8 and Table 9). Most but not all results on binding to mouse or human rMMR obtained via this SPR analysis are in agreement with the results obtained by PE-ELISA.

[4] = target: T2, Recombinant human MMR (R&D Systems); experiment: SPR, BIAcore T100, human MMR on CM5 chip
Description: as §1, §2

Row | fold increase in KD (so in the source) compared to the monovalent clone 1 Nanobody [1] | koff [2] | kon [2] | koff [3] | kon [3] | Binder | binding result [4]
1 | 3 fold | 0.0044 s⁻¹ | 1.04e+06 M⁻¹ s⁻¹ | – | – | Bivalent anti-MMR Nanobody 1 with (Gly4Ser)3 linker (VHH, Bivalent tandem of two clone 1 VHH domains in one chain; also called biv MMR linker 1 GS; MMR biv (Gly4Ser)3) QVQLQESGGGLVQPGGSLRLSCAASGNIFSINAIGWYRQAPGKQRELVATITLSGSTNYADSVKGRFSISRDNAKNTVYLQMNSLKPEDTAVYYCNANTYSDSDVYGYWGQGTQVTVSSGGGGSGGGGSGGGGSQVQLQESGGGLVQPGGSLRLSCAASGNIFSINAIGWYRQAPGKQRELVATITLSGSTNYADSVKGRFSISRDNAKNTVYLQMNSLKPEDTAVYYCNANTYSDSDVYGYWGQGTQVTVSSHHHHHH | –
2 | – | 0.0133 s⁻¹ | 576000 M⁻¹ s⁻¹ | 0.0133 s⁻¹ | 576000 M⁻¹ s⁻¹ | Anti-MMR Nanobody clone 1 (VHH, 99mTc-labelled at the His tail in the in vivo experiments; also called Anti-MMR Nb1; Nb MMR cl1) VHH: QVQLQESGGGLVQPGGSLRLSCAASGNIFSINAIGWYRQAPGKQRELVATITLSGSTNYADSVKGRFSISRDNAKNTVYLQMNSLKPEDTAVYYCNANTYSDSDVYGYWGQGTQVTVSS | no binding (tested: analyte 1 to 2000 nM)
3 | – | 0.0186 s⁻¹ | 97300 M⁻¹ s⁻¹ | 0.0186 s⁻¹ | 97300 M⁻¹ s⁻¹ | Anti-MMR Nanobody clone 3 (VHH, Monovalent, His-tagged; also called Anti-MMR Nb3; Nb clone 3) VHH: QVQLQESGGGLVQAGGSLRLSCAASGRTFSRDAMGWFRQAPGKEREFVAGISWSGGSTYYADSVKGRFTISRDGAKNTVNLQMNSLKPEDTAVYYCAASSIYGSAVVDGLYDYWGQGTQVTVSS | no binding (tested: analyte 1 to 2000 nM)
4 | 3 fold | 0.00428 s⁻¹ | 913000 M⁻¹ s⁻¹ | – | – | Bivalent anti-MMR Nanobody 1 with human IgA hinge linker (VHH, Bivalent tandem of two clone 1 VHH domains in one chain; also called biv MMR linker 3 IgA; MMR biv IgA) QVQLQESGGGLVQPGGSLRLSCAASGNIFSINAIGWYRQAPGKQRELVATITLSGSTNYADSVKGRFSISRDNAKNTVYLQMNSLKPEDTAVYYCNANTYSDSDVYGYWGQGTQVTVSSSPSTPPTPSPSTPPASQVQLQESGGGLVQPGGSLRLSCAASGNIFSINAIGWYRQAPGKQRELVATITLSGSTNYADSVKGRFSISRDNAKNTVYLQMNSLKPEDTAVYYCNANTYSDSDVYGYWGQGTQVTVSSHHHHHH | –
5 | 3 fold | 0.00411 s⁻¹ | 1.02e+06 M⁻¹ s⁻¹ | – | – | Bivalent anti-MMR Nanobody 1 with llama IgG2 hinge linker (VHH, Bivalent tandem of two clone 1 VHH domains in one chain; also called biv MMR linker 2 g2c; MMR biv g2c) QVQLQESGGGLVQPGGSLRLSCAASGNIFSINAIGWYRQAPGKQRELVATITLSGSTNYADSVKGRFSISRDNAKNTVYLQMNSLKPEDTAVYYCNANTYSDSDVYGYWGQGTQVTVSSAHHSEDPSSKAPKAPMAQVQLQESGGGLVQPGGSLRLSCAASGNIFSINAIGWYRQAPGKQRELVATITLSGSTNYADSVKGRFSISRDNAKNTVYLQMNSLKPEDTAVYYCNANTYSDSDVYGYWGQGTQVTVSSHHHHHH | –
